Measured values published in PMC4963399.

T1: rhodopsin, P15409
T1 chain: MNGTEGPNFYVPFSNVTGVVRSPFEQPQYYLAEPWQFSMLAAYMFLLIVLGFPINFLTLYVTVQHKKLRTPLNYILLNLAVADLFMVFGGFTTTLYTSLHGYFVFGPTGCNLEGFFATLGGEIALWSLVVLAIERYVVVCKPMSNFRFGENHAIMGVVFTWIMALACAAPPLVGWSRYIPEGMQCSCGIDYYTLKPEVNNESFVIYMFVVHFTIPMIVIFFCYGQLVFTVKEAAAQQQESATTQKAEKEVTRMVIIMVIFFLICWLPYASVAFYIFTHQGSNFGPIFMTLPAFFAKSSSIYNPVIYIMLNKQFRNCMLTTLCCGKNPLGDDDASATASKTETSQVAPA

B1: peripherin-2, N-terminally tagged with citrine, P15499 1-346 (natural protein)
chain: MALLKVKFDQKKRVKLAQGLWLMNWLSVLAGIVLFSLGLFLKIELRKRSEVMNNSESHFVPNSLIGVGVLSCVFNSLAGKICYDALDPAKYAKWKPWLKPYLAVCIFFNVILFLVALCCFLLRGSLESTLAYGLKNGMKYYRDTDTPGRCFMKKTIDMLQIEFKCCGNNGFRDWFEIQWISNRYLDFSSKEVKDRIKSNVDGRYLVDGVPFSCCNPSSPRPCIQYQLTNNSAHYSYDHQTEELNLWLRGCRAALLNYYSSLMNSMGVVTLLVWLFEVSITAGLRYLHTALESVSNPEDPECESEGWLLEKSVPETWKAFLESFKKLGKSNQVEAEGADAGPAPEAG
B2: peripherin-2, C-terminally tagged with citrine, P15499 1-346 (natural protein)
chain: B1 chain

Target: T1, rhodopsin, P15409
Experiment: FRET or BRET; three cube sensitized acceptor emission FRET on single isolated rod outer segments of C57BL/6J mice co-transduced with two rAAV vectors (cerulean and citrine fusions); FRET imaging solution pH 7.4; FRET efficiency EA as mean ± SEM
Details: remark: other sources report otherwise

Binder | FRET efficiency EA
B1 | 4.52
B2 | 2.76
